Test results reported in US20240002491A1, “METHODS FOR SELECTING PATIENTS FOR TREATMENT WITH AN NGF ANTAGONIST” (Regeneron Pharmaceuticals, Inc., priority 2022, published 2024).

Key:
[1] = system: adults with moderate-to-severe chronic pain associated with osteoarthritis (OA) of the knee or hip; test: FACT OA1 (NCT03161093, R475-OA-1611) Phase 3 trial, WOMAC pain and physical function; format: in vivo, human
Text: (§1) NCT02683239 (R475-PN-1523, or “FACT LTS”), NCT03161093 (R475-OA-1611, or “FACT OA1”), and NCT03304379 (R475-OA-1688, or “FACT OA2”) each were Phase 3 trials evaluating fasinumab in adults with moderate-to-severe chronic pain associated with osteoarthritis (OA) of the knee or hip. All three of these trials enrolled patients with OA of the knee or hip who had inadequate pain relief with acetaminophen and were intolerant to or had inadequate pain relief with opioids, or were unwilling or unable to take opioids. Complete inclusion and exclusion criteria for the trials are described at clinicaltrials.gov/ct2/show/NCT03161093, clinicaltrials.gov/ct2/show/NCT03304379, and clinicaltrials.gov/ct2/show/NCT02683239.
(§2) FACT OA1 and FACT OA2 assessed the efficacy of fasinumab in comparison to nonsteroidal anti-inflammatory drugs (NSAIDs; naproxen, diclofenac, or celecoxib) for treatment of OA. FACT OA1 includes results from a total of 1,801 patients randomized to one of four treatment arms: fasinumab 1 mg SC once every 8 weeks (Q8W) (n=304), fasinumab 1 mg SC once every 4 weeks (Q4W) (n=639), naproxen 500 mg twice daily (n=644), or placebo (n=214). In FACT OA2, patients were randomized into one of six treatment groups: fasinumab 1 mg SC once every 4 weeks (Q4W), fasinumab 3 mg SC once every 4 weeks (Q4W), fasinumab 6 mg SC once every 8 weeks (Q8W), celecoxib 200 mg once daily, diclofenac 75 mg twice daily, or placebo. While the FACT OA2 trial was still ongoing, enrollment into the fasinumab 3 mg Q4W and 6 mg Q8W groups was stopped for safety considerations; patients enrolled in those dose regimens discontinued study drug and entered the post-treatment follow-up period.
(§3) Fasinumab patients in both trials also reported improvements in their pain and physical function (WOMAC score) compared to those treated with the highest-approved prescription doses of NSAIDS.

alkaline phosphatase = conditions: DA patients at all doses; by 16 weeks
Text: Three non-overlapping subgroups are shown: patients without AA, patients with DA and patients with non-DA AAs.

[2] = system: patients with OA of the knee and/or hip; test: Integrated summary of safety (ISS): JR, AA, DA by number of large joints with OA at baseline; format: in vivo, human
Procedure: To improve risk-benefit for patients, analyses were conducted to identify populations of patients that might be at greater risk for joint-related adverse events. An integrated summary of safety (ISS) analysis was performed using pooled data from the clinical studies R475-PN-1612 (NCT03285646), R475-PN-1227 (NCT02447276), R475-PN-1523 (NCT02683239), R475-OA-1611 (NCT03161093), R475-OA-1688 (NCT03304379), R475-OA-1758 (NCT03691974), and MT-5547-J01 (NCT03245008).
As used in this Example, the term “adjudicated arthropathy” or “AA” is an umbrella term that encompasses the following conditions: rapidly progressive OA type 1 or 2, subchondral insufficiency fractures, and primary osteonecrosis. The term “destructive arthropathy” or “DA” refers to abnormal bone fragmentation, destruction, or fracture over a short period of time, which are observed by X-ray radiography and which are features inconsistent with radiographic findings typically observed in conventional advanced OA. The term “joint replacement” or “JR” refers to joint replacement surgery.
To examine different phenotypes of OA (generalized OA in particular) a subgroup analysis based on the number of large joints (knees, hips, shoulders) with OA at baseline was performed. OA joints were defined as any hip or knee with baseline KL 2 score or above and any shoulder with a score of mild, moderate or severe. Thus, the minimum number of joints with OA was 1 and the maximum number could be 6. Three subgroups were arbitrarily designated 1-2, 3-4, and 5-6 large joints with OA at baseline.
The analyses are based on large numbers of patients: 2103 patients in the placebo group, 1676 patients in the fasinumab 1 mg Q8W group (also referred to herein as “1Q8”), and 3009 patients in the 1 mg Q4W group (also referred to herein as “1Q4”). The percentage of the population in each subgroup was similar across treatment arms; the 1-2 joint subgroup ranged from 55.8 to 59.5% of the entire population, the range for the 3-4 joint subgroup was 33.6 to 37.4%, and the range for in the 5-6 joint subgroup was 6.7 to 7.1%.

[3] = system: adults with moderate-to-severe chronic pain associated with osteoarthritis (OA) of the knee or hip; test: FACT OA2 (NCT03304379, R475-OA-1688) Phase 3 trial, WOMAC pain and physical function; format: in vivo, human
Text: as §1, §2, §3

[4] = system: adults with moderate-to-severe chronic pain associated with osteoarthritis (OA) of the knee or hip; test: Adjudicated arthropathies across the three fasinumab Phase 3 trials; format: in vivo, human; conditions: across all three Phase 3 trials
Text: as §1
The FACT LTS study evaluated the long-term safety and tolerability of fasinumab, including adverse events of special interest such as joint damage (e.g. arthropathies), compared with placebo. A total of 2,411 patients were randomized to one of the following treatment arms: (1) fasinumab 1 mg subcutaneous (SC) every 8 weeks (Q8W); (2) fasinumab 1 mg SC every 4 weeks (Q4W); or (3) matching placebo SC Q4W. This study also included a substudy evaluating the efficacy of fasinumab in these same patient groups (n=215 in fasinumab 1 mg Q8W, n=217 in fasinumab 1 mg Q4W, n=214 in placebo).

[5] = FACT OA1, Week 16, fasinumab 1 mg Q4W, naproxen 2 × 500 mg/day
[6] = 1 mg Q4W (1Q4), 1-2 joint subgroup
[7] = 1 mg Q4W (1Q4), 5-6 joint subgroup
[8] = 1 mg Q8W (1Q8), 1-2 joint subgroup
[9] = 1 mg Q8W (1Q8), 5-6 joint subgroup
[10] = FACT OA2, Week 24, fasinumab 1 mg Q4W, diclofenac 2 × 75 mg/day or celecoxib 200 mg/d
[11] = FACT OA2, Week 24, fasinumab 1 mg Q4W, nominal p < 0.0001

Fasinumab: fully-human high-affinity monoclonal antibody directed against NGF; HCVR/LCVR SEQ ID NOs: 2/10
WOMAC pain, change from baseline [1, 5]: −39%
WOMAC pain, change from baseline (score, in brackets) [1, 5]: (−2.48)
WOMAC physical function, change from baseline [1, 5]: −39%
WOMAC physical function, change from baseline (score, in brackets) [1, 5]: (−2.41)
WOMAC physical function, difference vs. placebo ([1]; FACT OA1, Week 16, fasinumab 1 mg Q4W, p = 0.0001): −0.67
WOMAC pain, difference vs. placebo ([1]; FACT OA1, Week 16, fasinumab 1 mg Q4W, p = 0.0003): −0.66
WOMAC physical function, difference vs. naproxen ([1]; FACT OA1, Week 16, fasinumab 1 mg/month vs naproxen 2 × 500 mg/day, nominal p = 0.0006): −0.41
WOMAC pain, difference vs. naproxen ([1]; FACT OA1, Week 16, fasinumab 1 mg/month vs naproxen 2 × 500 mg/day, nominal p = 0.0050): −0.35
co-primary endpoints: pain and physical function compared to placebo ([1]; FACT OA1, fasinumab 1 mg Q4W, p<0.01 for all endpoints): significantly reduced pain and improved physical function compared to placebo
mean change from baseline in alkaline phosphatase (alkaline phosphatase): 20 U/L
median time for detection of DA ([2]; 1 mg Q4W): 343.5 days
difference in all AA from placebo ([2]; 1 mg Q4W (1Q4)): 5.7%
JR rate, difference from placebo [2, 6]: 1.3%
RPOA-1 rate [2, 6]: 5.8%
RPOA-1 rate, difference versus placebo [2, 6]: 4.1%
percentage of patients who developed adjudicated arthropathy (AA) [2, 6]: 7.7%
percentage of patients who underwent joint replacement (JR) [2, 6]: 6.4%
percentage of patients with destructive arthropathy (DA) [2, 6]: 0.3%
percentage of patients who developed adjudicated arthropathy (AA) [2, 7]: 12.2%
percentage of patients who underwent joint replacement (JR) [2, 7]: 14.6%
percentage of patients with destructive arthropathy (DA) [2, 7]: 1.5%
median time for detection of DA ([2]; 1 mg Q8W): 284 days
difference in all AA from placebo ([2]; 1 mg Q8W (1Q8)): 3.7%
JR rate, difference from placebo [2, 8]: 0.8%
RPOA-1 rate [2, 8]: 4.8%
RPOA-1 rate, difference versus placebo [2, 8]: 3.1%
percentage of patients who developed adjudicated arthropathy (AA) [2, 8]: 5.7%
percentage of patients who underwent joint replacement (JR) [2, 8]: 5.9%
percentage of patients with destructive arthropathy (DA) [2, 8]: 0.2%
percentage of patients who developed adjudicated arthropathy (AA) [2, 9]: 10.7%
percentage of patients who underwent joint replacement (JR) [2, 9]: 12.5%
percentage of patients with destructive arthropathy (DA) [2, 9]: 0.9%
median time for detection of DA ([2]; pooled high dose (3 mg Q4W, 6 mg Q4W, 9 mg Q8W, 9 mg Q4W)): 364.5 days
WOMAC pain, change from baseline [3, 10]: −42%
WOMAC pain, change from baseline (score, in brackets) [3, 10]: (−2.79)
WOMAC physical function, change from baseline [3, 10]: −39%
WOMAC physical function, change from baseline (score, in brackets) [3, 10]: (−2.63)
WOMAC pain, difference vs. placebo [3, 11]: −0.79
WOMAC physical function, difference vs. placebo [3, 11]: −0.82
WOMAC physical function, difference vs. diclofenac/celecoxib ([3]; FACT OA2, Week 24, fasinumab 1 mg/month, nominal p = 0.0152): −0.36
WOMAC pain, difference vs. diclofenac/celecoxib ([3]; FACT OA2, Week 24, fasinumab 1 mg/month, nominal p = 0.0503): −0.30
co-primary endpoints: pain and physical function compared to placebo ([3]; FACT OA2, fasinumab 1 mg Q4W, p<0.01 for all endpoints): significantly reduced pain and improved physical function compared to placebo
rates of adjudicated arthropathies compared with placebo or NSAIDs [4]: higher rates of arthropathies were adjudicated in patients treated with fasinumab compared with placebo or NSAIDs, which were dose-dependent
